Test results: the domain aggregation screens of Martell et al. (2025)

Test: soluble fraction after stress (log2 fold change); higher = more stays soluble; pooled small domains, quantitative proteomics
Details: stress: 50 degC
Procedure, shortened: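 Pooled custom libraries of small protein domains were each held under stress at 50°C. The read-out, high-throughput quantitative proteomics, tracked how much of each protein stayed soluble. This is reported as a base-two log fold change used to indicate aggregation propensity. Higher values mean more protein remains in solution.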

In order of rising “soluble fraction (log2)” value:
1. HMEPQSRTAYRLIEAMIVTHELPPGSRISEASLSAKLGIGRTPIREALQRLSFEGTVKIVPRSGAFVSEI  -2.76
2. HMTEEEEFEKGFEILVNLSHFNRFSVYKEDEYVIVRIADYDFNEYFKVKKSDVGRIAEFLNENIT  -2.4
3. HMSLEDYVIIKNKTVKVYETEFDGAPVVTSSSVGQKLILVEYNDNFAKILYRAKDGLDYVGYIKRKDVYVR  -2.4
4. HMLKIVRSREEVESRLYTIYGNVKGRRLYNFYLSLIIDGLDIVKARTSKNVYYTNIRNLKNAGIDFSQKIN  -2.38
5. HMAKITERVMGSAALRDYDPNYLPDEVLKALDGYPPFDGYVYKDGILYARVKIGDTFFIIPPI  -2.27
6. HMVNVTEAIDLENGTGKLSGTFNHEPKSAEEIIFLLKIDTNKWKLSQYWNKQMGDHWRVSALISQI  -1.91
7. HMTSTEQEILIEHMVDRLPALRKKYGISQTELGEKIGLSRQTISAIERKTTPLTWTTMLAILMFFT  -1.7
8. HMRMSQLSRLISILTLLKSKRLLTATELAEKYDVSIRTVYRDIRKLEEAGIPVYTIEGRGYSLMDNYT  -1.6
9. HMNGTGSVYKLSGKRRNPWRAVVTNGWAYNEEKGKLVQNRVTIGYYHTRDEAIQAIANYNSSP  -1.52
10. HMRAVEGKRLKRLLRTNLIAIERDQILQYPLRKRPLAIVTRAVRATNPDAVIVNDAGDDVFARALDVLLAS  -1.34
11. HMNKNNLRNVSSKIRKSRRVLNLSQAELSKKLDISPSYLNLIESGKRPITVPLLIKLGNILGISLKDL  -1.27
12. HMLKIAENIYQRRKEKNITQEELADFMMVTKASVSKWETGQSYPDILLLPKLATFFNVTVDELIGYEPQ  -1.2
13. HMEVVVPEDLDAALQQASRAQSFFSSLSYTHKKEYVAWINEAKRAETRAMRIQKTITMLESGQRGH  -1.14
14. HMDIDNDIIENILVMGVTKAIAINLSNEFERHRIIANIEYAKEKSKNSEIKNISAFTVEAIRQDYANS  -1.1
15. HMTSVQDLLRNGDRVGYQNGSTVKYWLEEMGFHKKDLLGYVTVEEYAEALQRGSGNGGVSAIVD  -0.961
16. HMKTKILAPIPGSIMVVDVKVGDTVKVGDRLVQLEAMKMENNITSEKAGKITAVLVTAGQKVLQNEVMIEL  -0.853
17. HMSASNSIDFANRMIYNKNQVAVFNFGKHMGRPVLEVLKSDPSYYDWMMKGDFPMDTKRKLTEIKLQGF  -0.755
18. HMISINVIGEMISGSYGNTPFSRTYEKDIYEQMVKLSDDADQAQTVEEYNKILAEFSLLTTEDLK  -0.698
19. HMSDDLLTGLDAYSRGDWTTATASFERVLTTADPNNRTEALYWLVMSETSAQNYQRALNYANTFL  -0.688
20. HMHRIKRRNDTLVSALDSIAGIGAKRKKALLQHFGSVRAIKAVSAEEIAKVEGISPTLANQIFEAL  -0.605
21. HMHVYQSLVTDRVVPGGGYRTTEAILSTEAWRNTLLEQAKRELIGVRNKYASLTELAKVWTAIDTVT  -0.586
22. HMVILPGEKMVVKIVQPGKEKGQGVGYLADGTMIVVDSGDKMIGQDVPTEITRVFQTVAGKMLFAVPVD  -0.426
23. HMINRMGRLVEALSHMIANTKPGARLPSEPELARQLGVSRATLREAMRTFEAQGMIHRRQGAGTFVVH  -0.402
24. HMSTNYVQVLRAALNGVSGRKLAQQYRVSRDTVAILLRQAKIQGWQRAEDLENITEEDLVALLSG  -0.373
25. HMATPSTGQVSVVRLNLRVSPSISSPVVTRLTQGDTVKILAASDDGRWYKVATADGRTGWLYTIYITAE  -0.37
26. HMEVLEGFIEDIKFKSEESGYTVAKLNNRNKSIVIVGTMPFISEGQHVKLTGEWKIHQKFGAQFNVKELEE  -0.347
27. HMEGTVQQDKFDAYKAKFEDAISNDLNTSMAITIIYDLLKDDMNDKTKLALINDFDKVLSLNLTTA  -0.255
28. HMGSWEDALKNWVDSALASGQKGILEQAVPKFERIMIETALTHTAGRRRDASLLLGWGRNTLTRKIKELGI  -0.214
29. HMAATNVKVPDLKGWDYNNAVGKYGDKLSFVKKSIYSDSVSKGIIIYNARVGETVAQGTTIEVTVSLGPKG  -0.205
30. HMEPTIGTATVTSGSRLNMRSAKSTSASVVTRIPSGATVGVISYASDWSKVTYNGYTGYVSSPYISMNG  -0.198
31. HMNRKLKAKATREKIYKSAEKLFSQNDYNKVSVDAIVEAAGVAKGSFYVHFASKDALIAMLINDH  -0.179
32. HMRGVDRPLTLPRHWRRNAGRLVKVTLANGSAVTGRVLDPGEERVTLEVSGERHEVAYADVKKALVQVEF  -0.169
33. HMSKAYLSVESNISGARVFVDGQKEGTTPLSDVLLSAGEHLILVKKQGYETYQKRVRFQKGRSMSLYVDLS  -0.159
34. HMETNFTGTRIATARKAKNMSQAQLAQQLFISPQAVGKWERGESIPDIVTVVKLADVLGVDLNYFSE  -0.12
35. HMTAKQDLDSIYRHLVATRKSIAENPKMVSSIDDPQALIKMLDYAIQYFYTDKRDEALAVLEKNEEQLNFR  -0.117
36. HMHREITGSLAERNGRYTAILNLYDEDGKRRQKSIALGIPVKGNKRKAQAQLEELKRAYSLGLPQ  -0.115
37. HMQRYFLEEAYQPSEKFELSAEAFHHIVHVMRMKPKDRVYLAFSDQQVIIAEITEITEEKVYLTEIEKEE  -0.0978
38. HMLPDHAPITMRQLAMLHVAKNKLDLTDEDYRSLLLLYGGVESSKQLNQEGLRRVLDRFKELGFEP  -0.0947
39. HMTQRRLQSELDSIPGVGAGTRTKLLRTLGSVDAVLRASEAELLAAGANRRQVASIQAHAAAVER  -0.0642
40. HMKYNETEFKNLVAKLYNGEIEIVGKFTGLSYPILVKDKYGIMLSQKANLILNYRPTINIALNKTEYAMN  -0.0487
41. HMSLDLERAVALLSLPRPVGNHPEDGELVEAGIGRYGPYVKHGSKYANLPDADEVFTIGMNRAVEVLAAK  -0.0399
42. HMEFNDLNDDEKAILHIMYNTGEKMTTALAARITNRGRNFASKLLKSLVKKEILEWHGTSKQDRNQYYTLA  -0.0326
43. HMTYAQQIGARIAFLRRLKGLTLAELAERVNKHKSTISKYESGQIIIDIESLKEVADALGVDVAQIVE  -0.0214
44. HMKSNNPLDHVRVKQRGASWAYYFEKAKVDGKRRRGEGGGYATEQDARMAGVEAYNAYIGGGAK  -0.0068
45. HMHKFMEQNQDRRLSRMKELIGILSEAAKTYYQESREIMSNFQYDRMYDELLELEKETGVVMAGSPTQKV  -6.44e-05
46. HMDPKISWESDEKLSANIGHYENSIKPLMGNKYLIELSQLKDKIESHPWVARATIKRIFWNKIHIQLESHD  0.00717
47. HMGQISDDGALKKLASEVLAANPQALADWKAGKQQAVSFLVGQAMKASKGRGDAALLGELIRAALD  0.0134
48. HMADAGQTTAATELKQAPNAGSATISQLSAGQTLQIGTRQGAWYQVKTPQGEGWVRMLSVRLQ  0.0186
49. HMNPLDGTSVHPESYEAAEKLLKKQGFSLEDISGGKLTGLSLTIKDYARLAKELEIGEITLRDIVKELEK  0.0193
50. HMNFEIEVTENGKRIDSYLAEELDLSRSKVQKLIKQELVTVNGKVVSNNYNVKLGDTILVNDD  0.0352
51. HMISEGDIIKGTVIDVNEEEVILDLKYYAQGVIKAENLSNDPDFLAAGKISVGDEIEATVIKMDDGEGNIE  0.0355
52. HMFRMTPQRMAILAEVQNAERHLTAAEIYERVRRKYPTIAYGTVYRTLHLLAKHGLIQEFPFGDNASLFDR  0.0678
53. HMEDEAVMQLPLSELKGLSPELLAILNGAGYEKLKDVLDLEREDIERIPGMTPERNEQLVAFLAELTE  0.0689
54. HMRNEFEAHSDGTRIQLNDRSKATFSVYDVQGRLIHSFQDFSGSSFNIEPKNQLLIITRETAEGVSVKKLV  0.0942
55. HMTVEMYIGKTANVLETVTENNGRIAIFGEEWQAKSLNGETIEKGAQAKIVKNDSIIMYVVPI  0.0967
56. HMGEQETILKGDVNRDGVVDVNDVTHLQIHISNDDKNPLIDVTNKAWFDAADMYGDGKLDILDATALQIYI  0.11
57. HMQDNDLKNQIENVLRTYPDNVFTVEKIADVLRSHGSAAFKLIVQELASLERDKVAVVTEDGKFQLNPD  0.125
58. HMVGAEDISKPMNLGALMRTAHAFGASFFFTINAHPKVRHAYNSDTSRSFDHMPYYPWDTMEE  0.129
59. HMSQLSQIVDAFGGLRPFARALNKPPSTVQYWIEKGGIPASVVSPIMKLSEEKGLGLSRDQVSAAVS  0.157
60. HMGTMKGFVDGSSVHLRSGPSLSESIRAKVVKGQTLYITERRGDWYRATVHGGGEGWIHTSLVKLAG  0.178
61. HMHAPRIEVVQIDPEKIGALIGPGGKNIRRITEVTGANLDIDEDNSGKIRVYASDSEAMNRALQEIDLVT  0.193
62. HMKDLTAIKGVGEFFAKKLSQAGYQSITNLTDVNAKRLQADTGIPLPIAARIIKEAQSLIAET  0.206
63. HMSHGYVEMQAKDDQVLLAALKNHPWFEKVSIDEETGLTKAILTQPIEAEELNSMLFEKGIVLSHLVKRK  0.234
64. HMQSAMALTKDLIEQQGKYYHRGQPFTGVGFAKNKKGKFVTEEPFKNGLLHGKRVNYDHNGHVLAREK  0.264
65. HMIEESTVPDLKGKSQEDAIKLLEDANLKYQIVEEESKKIEAGYVISQETDANKKVNAGDTVIIHVST  0.295
66. HMEGTEVTTEPPGAQIEFDGKQFGPTPTRVPGLAAGKQFRITLAGYQEAKPKLKNNPKEGEPLSFTLTAI  0.406
67. HMDDPEISQEQRQQLFRTAKEHFGASGNDVLKEILADHGRDSTVKMPVSVFAEIMGDLLKRALD  0.432
68. HMSIHPRDKADLGTALSKWKKGALDDKQLELEVARVFMRTYGKKLEGQALNKAVAAWVAALTQSKK  0.506
